Values quoted from earlier work, collected in US20220031761A1, “COMPOSITIONS FOR PROMOTING SKIN REGENERATION, SKIN REJUVENATION, AND WOUND HEALING AND METHODS FOR PREPARATION AND USE THEREOF” (priority 2018, published 2022).

Conditions: in vivo

## HGF: growth factor secreted by mesenchymal cells, eluted by placental and umbilical tissue
  half-life of HGF: approximately 3 hours
